B1: unnamed (parent)
chain 1: DYMGWMDF
chain 2: MDVVDSLLVNGSNITPPCELGLENETLFCLDQPRPSKEWQPAVQILLYSLIFLLSVLGNTLVITVLIRNKRMRTVTNIFLLSLAVSDLMLCLFCMPFNLIPNLLKDFIFGSAVCKTTTYFMGTSVSVSTFNLVAISLERYGAICKPLQSRVWQTKSHALKVIAATWCLSFTIMTPYPIYSNLVPFTKNNNQTANMCRFLLPNDVMQQSWHTFLLLILFLIPGIVMMVAYGLISLELYQGIKFEASQKKSAKERKPSTTSSGKYEDSDGCYLQKTRPPRKLELRQLSTGSSSRANRIRSNSSAANLMAKKRVIRMLIVIVVLFFLCWMPIFSANAWRAYDTASAERRLSGTPISFILLLSYTSSCVNPIIYCFMNKRFRLGFMATFPCCPNPGPPGARGEVGEEEEGGTTGASLSRFSYSHMSASVPPQ

Variants of: B1
Experiment: radiolabeled ligand-binding assay (competition with unlabeled CCK-8)
Conditions: upper plateau of the fitted competition curve at the lowest CCK-8 concentration (log [CCK-8] = -12), read off a plot

Row | Variant | percent of parent [% WT]
1 | chain 2 H210A | 70
2 | chain 2 M121A | 230
3 | chain 2 V125A | 75
4 | chain 2 M195A | 30
5 | chain 2 Y360A | 28
6 | chain 2 F185A | 15
7 | chain 2 T118A | 110
8 | chain 2 K105A | 50
